For one data set, the target named is T1, CYP102A2 (Bacillus subtilis, UniProt O08394).
T1 construct: gene cypD; full-length heme-diflavin reductase fusion, about 119 kDa per active site; PCR from genomic DNA, pCR T7/CT-TOPO, E. coli BL21(DE3); untagged enzyme and C-terminal 6His version both made, said kinetically alike
T1 sequence (O08394 1-1061): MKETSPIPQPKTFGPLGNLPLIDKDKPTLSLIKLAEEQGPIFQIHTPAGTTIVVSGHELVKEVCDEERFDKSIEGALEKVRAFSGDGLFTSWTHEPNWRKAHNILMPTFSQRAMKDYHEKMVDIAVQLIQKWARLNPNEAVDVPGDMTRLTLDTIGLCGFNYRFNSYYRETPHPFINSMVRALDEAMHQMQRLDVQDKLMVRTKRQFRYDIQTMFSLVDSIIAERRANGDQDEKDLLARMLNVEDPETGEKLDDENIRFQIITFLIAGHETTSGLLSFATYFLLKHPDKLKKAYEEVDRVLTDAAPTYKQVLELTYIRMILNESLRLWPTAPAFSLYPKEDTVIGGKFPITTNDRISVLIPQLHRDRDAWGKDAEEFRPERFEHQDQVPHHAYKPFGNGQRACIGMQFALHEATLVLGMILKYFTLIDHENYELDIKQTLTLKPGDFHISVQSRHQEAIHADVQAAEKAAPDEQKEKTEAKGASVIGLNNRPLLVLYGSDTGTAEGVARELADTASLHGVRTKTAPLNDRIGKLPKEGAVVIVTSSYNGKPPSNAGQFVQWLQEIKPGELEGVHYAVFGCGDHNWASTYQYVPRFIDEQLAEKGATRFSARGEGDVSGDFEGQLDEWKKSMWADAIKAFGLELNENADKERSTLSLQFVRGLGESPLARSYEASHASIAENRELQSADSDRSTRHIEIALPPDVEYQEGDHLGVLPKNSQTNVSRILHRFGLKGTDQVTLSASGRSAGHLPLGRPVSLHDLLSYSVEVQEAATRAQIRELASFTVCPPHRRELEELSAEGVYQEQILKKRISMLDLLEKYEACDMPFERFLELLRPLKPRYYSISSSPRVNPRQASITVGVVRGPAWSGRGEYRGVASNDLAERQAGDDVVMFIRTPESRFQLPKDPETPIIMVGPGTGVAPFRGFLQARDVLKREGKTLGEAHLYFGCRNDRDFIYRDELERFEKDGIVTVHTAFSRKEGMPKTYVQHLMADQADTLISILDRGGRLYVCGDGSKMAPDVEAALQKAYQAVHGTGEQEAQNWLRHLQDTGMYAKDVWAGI
Description: product inhibition, NADPH oxidation at […] nm. Format: biochemical.

Substrate in data set [1]: CCCCCCCCCCCC(=O)O
The experiment in a line: purified protein. Type of data set: biochemical, Bacillus subtilis. As to conditions: NADPH co-substrate, 0.1 M potassium phosphate pH 7.2, 37 °C, sigmoidal, nH 8.7.

Substrate in data set [2]: CCCCCCCCCCCCOS(=O)(=O)O
The experiment in a line: purified protein. Format: biochemical, Bacillus subtilis. As to conditions: 0.1 mM NADPH, 0.1 M potassium phosphate pH 7.2, 37 °C, SDS 0.34-1.73 mM, sigmoidal, nH 5.7.

Substrate in data set [3]: NC(=O)C1=CN([C@@H]2O[C@H](COP(=O)(O)OP(=O)(O)OC[C@H]3O[C@@H](n4cnc5c(N)ncnc54)[C@H](OP(=O)(O)O)[C@@H]3O)[C@@H](O)[C@H]2O)C=CC1
The experiment in a line: purified protein. The note with it: 1.735 mM SDS co-substrate, 0.1 M potassium phosphate pH 7.2, 37 °C, NADPH 6.6-100 μM. Format: biochemical, Bacillus subtilis.

The source of these data is paper PMC2956967, “Cytochrome P450 102A2 Catalyzes Efficient Oxidation of Sodium Dodecyl Sulphate: A Molecular Tool for Remediation” (Enzyme Research, 2010).

The Ki is the equilibrium dissociation constant of an inhibitor or competing ligand from its target. For `NC(=O)c1ccc[n+]([C@@H]2O[C@H](COP(=O)(O)OP(=O)(O)OC[C@H]3O[C@@H](n4cnc5c(N)ncnc54)[C@H](OP(=O)(O)O)[C@@H]3O)[C@@H](O)[C@H]2O)c1` [NADP^+], the affinity at CYP102A2 corresponds to a Ki of 100 µM.

B1: CYP102A2 (Bacillus subtilis subsp. subtilis str. 168) (protein)
chain: T1 sequence (O08394 1-1061)
notes: full-length heme-diflavin reductase fusion, about 119 kDa per active site; PCR from genomic DNA, pCR T7/CT-TOPO, E. coli BL21(DE3); untagged enzyme and C-terminal 6His version both made, said kinetically alike
Broadly, the Vmax is the rate approached at saturating substrate. Usually Km stands for the concentration of substrate that gives half-maximal velocity. Usually kcat stands for the maximal rate divided by the concentration of active sites. Usually kcat/Km stands for the second-order rate constant that governs catalysis at low substrate concentration. In the case of B1, in “purified protein [1]”, the K0.5 was determined as 0.47 ± 0.005 mM and the Vmax worked out at 0.088 µmol/min. Besides, in “purified protein [2]”, the K0.5 came to 1.22 ± 0.04 mM and the Vmax is 0.18 µmol/min. Also, in “purified protein [3]”, the Km came to 8.30 ± 0.62 µM, the kcat worked out at 2.05 ± 0.05 s⁻¹ and the kcat/Km amounted to 250000 M⁻¹ s⁻¹.
